Tests used:
HLA-DRB1*1101 [1] = biological target: T1, HLA-DRB1*1101 (human); test: competitive MHC class II binding assay; competitor: control peptide Influenza haemagglutinin 307-319;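 for ratio of IC50 to that of the control peptide: each peptide was tested for its capacity to displace a known reference binder from human MHC class II allotypes, and its IC50 is expressed relative to that of the reference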
T1 construct: human MHC class II allotype

DQA1*0102/DQB1*0602 [2] = biological target: T2, DQA1*0102/DQB1*0602 (human, UniProt P01920 33-230, limits assumed); test: competitive MHC class II binding assay; competitor: control peptide Human Insulin B 1-15
T2 construct: human MHC class II allotype
T2 MHC II alpha: not shown
T2 MHC II beta: not shown

HLA-DRB1*0401 [3] = biological target: T3, HLA-DRB1*0401 (human); test: competitive MHC class II binding assay; competitor: control peptide Influenza haemagglutinin 307-319;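 for ratio of IC50 to that of the control peptide: each peptide was tested for its capacity to displace a known reference binder from human MHC class II allotypes, and its IC50 is expressed relative to that of the reference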
T3 construct: human MHC class II allotype

HLA-DRB1*0701 [4] = biological target: T4, HLA-DRB1*0701 (human); test: as above
T4 construct: human MHC class II allotype

HLA-DRB1*0301 [5] = biological target: T5, HLA-DRB1*0301 (human); test: competitive MHC class II binding assay; competitor: control peptide Myco. tuberculosis/leprae hsp 65 2-16
T5 construct: human MHC class II allotype

HLA-DRB1*1501 [6] = biological target: T6, HLA-DRB1*1501 (human); test: competitive MHC class II binding assay; competitor: control peptide Human myelin basic protein 85-99
T6 construct: human MHC class II allotype

HLA-DRB1*1501 [7] = biological target: T6, HLA-DRB1*1501; test: competitive MHC class II binding assay, high stringency screen; competitor: control peptide Myelin Basic Protein 85-99
HLA-DRB1*0101 = biological target: T7, HLA-DRB1*0101 (human); test: competitive MHC class II binding assay
T7 construct: human MHC class II allotype

HLA-DRB1*0301 [8] = biological target: T5, HLA-DRB1*0301; test: competitive MHC class II binding assay
HLA-DRB1*0401 [9] = biological target: T3, HLA-DRB1*0401; test: competitive MHC class II binding assay
HLA-DRB1*0701 [10] = biological target: T4, HLA-DRB1*0701; test: competitive MHC class II binding assay
HLA-DRB1*1101 [11] = biological target: T1, HLA-DRB1*1101; test: competitive MHC class II binding assay
HLA-DRB1*1301 = biological target: T8, HLA-DRB1*1301 (human); test: competitive MHC class II binding assay
T8 construct: human MHC class II allotype

HLA-DRB1*1501 [12] = biological target: T6, HLA-DRB1*1501; test: competitive MHC class II binding assay
DQA1*0102/DQB1*0602 [13] = biological target: T2, DQA1*0102/DQB1*0602; test: competitive MHC class II binding assay

For RGLKQMKRVGDAN [HDM35], the “ratio of IC50 to that of the control peptide” value (“ratio of IC50” below) (HLA-DRB1*1101 [1]) was 1.26 ratio.

In the case of HDDVVSMEYDLAYKL [HDM39A], the “ratio of IC50” value (DQA1*0102/DQB1*0602 [2]) is reported as 0.1 ratio, the “ratio of IC50” value (HLA-DRB1*0401 [3]) is reported as 76.2 ratio and the “ratio of IC50” value (HLA-DRB1*0701 [4]) is reported as 0.71 ratio.

With VSMEYDLAYKLGDLH [HDM40A] the “ratio of IC50” value (HLA-DRB1*0701 [4]) was 2.29 ratio and the “ratio of IC50” value (HLA-DRB1*1101 [1]) was 6 ratio.

In the case of TAIFQDTVRAEMTK [HDM48], the “ratio of IC50” value (HLA-DRB1*0701 [4]) is reported as 15.7 ratio, the “ratio of IC50” value (HLA-DRB1*1101 [1]) is reported as 13.6 ratio and the “ratio of IC50” value (HLA-DRB1*0301 [5]) is reported as 211 ratio.

In the case of DTVRAEMTKVLAP [HDM49], the “ratio of IC50” value (DQA1*0102/DQB1*0602 [2]) is reported as 1.7 ratio and the “ratio of IC50” value (HLA-DRB1*1501 [6]) is reported as 671 ratio.

VDFKGELAMRNIE [HDM51] was tested, and the “ratio of IC50” value (HLA-DRB1*0701 [4]) was 20.9 ratio and the “ratio of IC50” value (HLA-DRB1*1101 [1]) was 30.9 ratio.

B1: Fel d 1 peptide EQVAQYKALPVVLENA (peptide)
peptide: EQVAQYKALPVVLENA
notes: said to have been tested in an earlier study
For B1, the “ratio of IC50” value (HLA-DRB1*1501 [7]) was 0.97 ratio.

IGIKDLDAFRHYD [HDM11]: no binding (HLA-DRB1*0101); no binding (HLA-DRB1*0301 [8]); no binding (HLA-DRB1*0401 [9]). IGIKDLDAFRHYD [HDM11]: no binding (HLA-DRB1*0701 [10]); no binding (HLA-DRB1*1101 [11]); no binding (HLA-DRB1*1301). IGIKDLDAFRHYD [HDM11]: no binding (HLA-DRB1*1501 [12]); no binding (DQA1*0102/DQB1*0602 [13]).

KDLDAFRHYDGRT [HDM12]: no binding (HLA-DRB1*0101); no binding (HLA-DRB1*0301 [8]); no binding (HLA-DRB1*0401 [9]). KDLDAFRHYDGRT [HDM12]: no binding (HLA-DRB1*0701 [10]); no binding (HLA-DRB1*1101 [11]); no binding (HLA-DRB1*1301). KDLDAFRHYDGRT [HDM12]: no binding (HLA-DRB1*1501 [12]); no binding (DQA1*0102/DQB1*0602 [13]).

RTIIQRDNGYQPNY (solubility test: NO) [HDM13]: no binding (HLA-DRB1*0101); no binding (HLA-DRB1*0301 [8]); no binding (HLA-DRB1*0401 [9]). RTIIQRDNGYQPNY (solubility test: NO) [HDM13]: no binding (HLA-DRB1*0701 [10]); no binding (HLA-DRB1*1101 [11]); no binding (HLA-DRB1*1301). RTIIQRDNGYQPNY (solubility test: NO) [HDM13]: no binding (HLA-DRB1*1501 [12]); no binding (DQA1*0102/DQB1*0602 [13]).

RNSWDTNWGDNGYG [HDM16A]: no binding (HLA-DRB1*0101); no binding (HLA-DRB1*0301 [8]); no binding (HLA-DRB1*0401 [9]). RNSWDTNWGDNGYG [HDM16A]: no binding (HLA-DRB1*0701 [10]); no binding (HLA-DRB1*1101 [11]); no binding (HLA-DRB1*1301). RNSWDTNWGDNGYG [HDM16A]: no binding (HLA-DRB1*1501 [12]); no binding (DQA1*0102/DQB1*0602 [13]).

NSVNVPSELDLRSLRT [HDM17]: no binding (HLA-DRB1*0101); no binding (HLA-DRB1*0301 [8]); no binding (HLA-DRB1*0401 [9]). NSVNVPSELDLRSLRT [HDM17]: no binding (HLA-DRB1*0701 [10]); no binding (HLA-DRB1*1101 [11]); no binding (HLA-DRB1*1301). NSVNVPSELDLRSLRT [HDM17]: no binding (HLA-DRB1*1501 [12]); no binding (DQA1*0102/DQB1*0602 [13]).

AKIEIKASLDGLE [HDM27]: no binding (HLA-DRB1*0101); no binding (HLA-DRB1*0301 [8]); no binding (HLA-DRB1*0401 [9]). AKIEIKASLDGLE [HDM27]: no binding (HLA-DRB1*0701 [10]); no binding (HLA-DRB1*1101 [11]); no binding (HLA-DRB1*1301). AKIEIKASLDGLE [HDM27]: no binding (HLA-DRB1*1501 [12]); no binding (DQA1*0102/DQB1*0602 [13]).

KAVDEAVAAIEKS [HDM28]: no binding (HLA-DRB1*0101); no binding (HLA-DRB1*0301 [8]); no binding (HLA-DRB1*0401 [9]). KAVDEAVAAIEKS [HDM28]: no binding (HLA-DRB1*0701 [10]); no binding (HLA-DRB1*1101 [11]); no binding (HLA-DRB1*1301). KAVDEAVAAIEKS [HDM28]: no binding (HLA-DRB1*1501 [12]); no binding (DQA1*0102/DQB1*0602 [13]).

ETFDPMKVPDHSD [HDM29]: no binding (HLA-DRB1*0101); no binding (HLA-DRB1*0301 [8]); no binding (HLA-DRB1*0401 [9]). ETFDPMKVPDHSD [HDM29]: no binding (HLA-DRB1*0701 [10]); no binding (HLA-DRB1*1101 [11]); no binding (HLA-DRB1*1301). ETFDPMKVPDHSD [HDM29]: no binding (HLA-DRB1*1501 [12]); no binding (DQA1*0102/DQB1*0602 [13]).

ETFDPMKVPDHSDK [HDM29A]: no binding (HLA-DRB1*0101); no binding (HLA-DRB1*0301 [8]); no binding (HLA-DRB1*0401 [9]). ETFDPMKVPDHSDK [HDM29A]: no binding (HLA-DRB1*0701 [10]); no binding (HLA-DRB1*1101 [11]); no binding (HLA-DRB1*1301). ETFDPMKVPDHSDK [HDM29A]: no binding (HLA-DRB1*1501 [12]); no binding (DQA1*0102/DQB1*0602 [13]).

— US20100260805A1 (CIRCASSIA, published 2010)
